Measured values from patent US10245299B2, “Autoassembling peptides for the treatment of pulmonary bulla” (3-D MATRIX, LTD., priority 2014, dated 2019).
Where no end group is shown, it is not given here.

Legend:
Assay type in all cases: physicochemical
[1] = Gelation of peptide solutions after saline buffer treatment, time sweep; settings: saline buffer (0.15 M of NaCl); IEIK13 1.5%, KLD12 1.5%, PuraMatrix® 2.5% solution
Description: The effect of salt ionic strength level surrounding peptide solution on the properties of peptide solutions was evaluated to identify the possibility of peptide gelation when the peptide solution is placed into the environment where salt ionic strength level is high. […] Without pH effect, the effect of saline treatment on gelation of peptide solutions were evaluated. […] This is because IEIK13 is much more sensitive to salt ionic strength levels. Fast gelation of IEIK13 at the salt ionic strength level similar to body fluid isotonic salt level may generally improve its function and gelation speed for various clinical applications. The results are shown in FIG. 19 for IEIK13, KLD12 and PuraMatrix® solutions. Time sweep tests were performed at 1 rad/sec and at 1 Pa with 20 mm plates and 500 μm gap distance. […]

[2] = Rheological properties of pH adjusted peptide solutions and hydrogels; settings: KLD12 1%, IEIK13 1%, PuraMatrix® 1% and 2.5%
Description: Based on the visual observation of the effect of pH level on the properties of the peptide solutions, the effect on the rheological properties of the peptide solutions after adjusting their pH level to 3.4 (PuraMatrix® and KLD12) or 3.7 (IEIK13) was evaluated. If the pH levels of peptide solutions are higher than 3.5 (PuraMatrix® and KLD12) or 3.7 (IEIK13), the peptide solution began phase separation becoming cloudy. The rheological properties of PuraMatrix®, KLD12 and IEIK13 solutions were higher at pH 3.4. The results are shown in FIG. 2 for KLD12 1%, FIG. 3 for IEIK13 1%, and FIGS. 4-5 for PuraMatrix® 1% and 2.5%, respectively. Stress sweep tests were performed at 10 rad/s. Frequency sweep tests were performed at 1 Pa.
Based on the results of the effect on the rheological properties of the peptide solutions after adjusting their pH level to 3.4 (PuraMatrix® and KLD12) or 3.7 (IEIK13), the effect on the rheological properties of the peptide solutions at various pH levels was evaluated. […] The rheological properties of peptides were evaluated at various concentrations using a rheometer (DHR-1, TA Instruments) with 20 mm plates. The results are shown in FIG. 6A for PuraMatrix® 2.5% solution and FIG. 6B for IEIK13 1.5% solution, respectively. Frequency sweep tests were performed from 1 rad/sec to 10 rad/sec at 1 Pa and the storage modulus at 1 rad/sec was selected for data.
Based on the results of the effect on the rheological properties of the peptide solutions after adjusting their pH level, the effect on the rheological properties of the peptide hydrogels at various pH after DMEM treatment was evaluated and compared to the effect on the rheological properties of the peptide solutions at various pH before DMEM treatment. […] The results are shown in FIGS. 7A-7B for PuraMatrix® and FIGS. 8A-8B for IEIK (SEQ ID NO: 5), respectively. Frequency sweep tests were performed from 1 rad/sec to 10 rad/sec at 1 Pa and the storage modulus at 1 rad/sec was selected for data.

[3] = pH and appearance of 2.5% peptide solutions after adding 0.1 N NaOH
Description: To adjust the pH level of the peptide solutions by way of example, 0.1 N NaOH was added to 2 mL of 2.5% peptide solutions and their pH and appearance were measured.

[4] = Appearance of 1.5% peptide solutions with various salts at room temperature; settings: for Appearance: KLD12 solution, room temperature
Description: The effect of salt ionic strength level on the properties of peptide solutions was evaluated to identify optimized salt ionic strength levels for the peptides as described herein. Increasing the salt ionic strength level of PuraMatrix® and other peptides may generally improve its function and mechanical strength for various clinical applications. To adjust the salt ionic strength of the peptide solutions by way of example, various salt buffer solutions including NaCl, KCl, MgCl2, CaCl2 and DPBS (10×) were added to 2 mL of 1.5% peptide solutions.

With KLDLKLDLKLDL [KLD12] the “gelation after saline buffer treatment” value [1] was “no or negligible gelation”, the “rheological properties of solutions at pH 3.4” value [2] was “higher” and the Appearance ([3]; 0.1N NaOH 0 μL/mL, conc. 2.5%, pH 2.1) was “Clear, thick gel”. For the same sequence, the Appearance ([3]; 0.1N NaOH 50 μL/mL, conc. 2.38%, pH 2.4) was “Clear, thick gel”, the Appearance ([3]; 0.1N NaOH 100 μL/mL, conc. 2.27%, pH 2.6) was “Clear, thick gel” and the Appearance ([3]; 0.1N NaOH 250 μL/mL, conc. 2.0%, pH 4.0) was “Slightly cloudy,”. For the same sequence, the Appearance ([3]; 0.1N NaOH 300 μL/mL, conc. 1.92%, pH 4.7) was “Cloudy, brittle gel”, the Appearance ([3]; 0.1N NaOH 350 μL/mL, conc. 1.85%, pH 5.2) was “Cloudy, phase-” and the “Peptide solution pH” value ([3]; 0.1N NaOH added in 2.5% solution 0 μL/mL, conc. 2.5%) was 2.1. For the same sequence, the “Peptide solution pH” value ([3]; 0.1N NaOH added in 2.5% solution 50 μL/mL, conc. 2.38%) was 2.4, the “Peptide solution pH” value ([3]; 0.1N NaOH added in 2.5% solution 100 μL/mL, conc. 2.27%) was 2.6 and the “Peptide solution pH” value ([3]; 0.1N NaOH added in 2.5% solution 150 μL/mL, conc. 2.17%) was 2.9. For the same sequence, the “Peptide solution pH” value ([3]; 0.1N NaOH added in 2.5% solution 200 μL/mL, conc. 2.08%) was 3.3, the “Peptide solution pH” value ([3]; 0.1N NaOH added in 2.5% solution 225 μL/mL, conc. 2.04%) was 3.6 and the “Peptide solution pH” value ([3]; 0.1N NaOH added in 2.5% solution 250 μL/mL, conc. 2.0%) was 4.0. The “Peptide solution pH” value ([3]; 0.1N NaOH added in 2.5% solution 300 μL/mL, conc. 1.92%) was 4.7, the “Peptide solution pH” value ([3]; 0.1N NaOH added in 2.5% solution 350 μL/mL, conc. 1.85%) was 5.2 and the Appearance ([3]; pH 7.0) was “Cloudy, phase-”. For the same sequence, the Appearance ([4]; conc. 1.3%, KCl 0.4 M, ionic strength 0.4 M) was “Cloudy, phase-separated”, the Appearance ([4]; conc. 1.3%, NaCl 0.4 M, ionic strength 0.4 M) was “Cloudy, phase-separated” and the Appearance ([4]; conc. 1.32%, KCl 0.35 M, ionic strength 0.35 M) was “Slightly cloudy, brittle gel”. For the same sequence, the Appearance ([4]; conc. 1.32%, NaCl 0.35 M, ionic strength 0.35 M) was “Slightly cloudy, brittle gel”, the Appearance ([4]; conc. 1.35%, KCl 0.3 M, ionic strength 0.3 M) was “Slightly cloudy, thick, stiffer gel” and the Appearance ([4]; conc. 1.35%, NaCl 0.3 M, ionic strength 0.3 M) was “Slightly cloudy, thick, stiffer gel”. The Appearance ([4]; conc. 1.38%, KCl 0.25 M, ionic strength 0.25 M) was “Clear, thick, stiffer gel”, the Appearance ([4]; conc. 1.38%, NaCl 0.25 M, ionic strength 0.25 M) was “Clear, thick, stiffer gel” and the Appearance ([4]; conc. 1.4%, KCl 0.2 M, ionic strength 0.2 M) was “Clear, thick, stiffer gel”. The Appearance ([4]; conc. 1.4%, NaCl 0.2 M, ionic strength 0.2 M) was “Clear, thick, stiffer gel”, the Appearance ([4]; conc. 1.42%, CaCl2 0.167 M, ionic strength 0.5 M) was “Cloudy, phase-separated” and the Appearance ([4]; conc. 1.42%, MgCl2 0.167 M, ionic strength 0.5 M) was “Cloudy, phase-separated”. The Appearance ([4]; conc. 1.43%, CaCl2 0.133 M, ionic strength 0.4 M) was “Slightly cloudy, thick, stiffer gel”, the Appearance ([4]; conc. 1.43%, CaCl2 0.15 M, ionic strength 0.45 M) was “Slightly cloudy, brittle gel” and the Appearance ([4]; conc. 1.43%, KCl 0.15 M, ionic strength 0.15 M) was “Clear, thick, stiffer gel”. The Appearance ([4]; conc. 1.43%, MgCl2 0.133 M, ionic strength 0.4 M) was “Slightly cloudy, thick, stiffer gel”, the Appearance ([4]; conc. 1.43%, MgCl2 0.15 M, ionic strength 0.45 M) was “Slightly cloudy, brittle gel” and the Appearance ([4]; conc. 1.43%, NaCl 0.15 M, ionic strength 0.15 M) was “Clear, thick, stiffer gel”. The Appearance ([4]; conc. 1.44%, CaCl2 0.117 M, ionic strength 0.35 M) was “Clear, thick, stiffer gel”, the Appearance ([4]; conc. 1.44%, MgCl2 0.117 M, ionic strength 0.35 M) was “Clear, thick, stiffer gel” and the Appearance ([4]; conc. 1.45%, CaCl2 0.1 M, ionic strength 0.3 M) was “Clear, thick, stiffer gel”. The Appearance ([4]; conc. 1.45%, KCl 0.1 M, ionic strength 0.1 M) was “Clear, thick, stiffer gel”, the Appearance ([4]; conc. 1.45%, MgCl2 0.1 M, ionic strength 0.3 M) was “Clear, thick, stiffer gel” and the Appearance ([4]; conc. 1.45%, NaCl 0.1 M, ionic strength 0.1 M) was “Clear, thick, stiffer gel”. For the same sequence, the Appearance ([4]; conc. 1.46%, CaCl2 0.083 M, ionic strength 0.25 M) was “Clear, thick, stiffer gel”, the Appearance ([4]; conc. 1.46%, MgCl2 0.083 M, ionic strength 0.25 M) was “Clear, thick, stiffer gel” and the Appearance ([4]; conc. 1.47%, CaCl2 0.067 M, ionic strength 0.2 M) was “Clear, thick, stiffer gel”. For the same sequence, the Appearance ([4]; conc. 1.47%, MgCl2 0.067 M, ionic strength 0.2 M) was “Clear, thick, stiffer gel”, the Appearance ([4]; conc. 1.48%, CaCl2 0.05 M, ionic strength 0.15 M) was “Clear, thick, stiffer gel” and the Appearance ([4]; conc. 1.48%, KCl 0.05 M, ionic strength 0.5 M) was “Clear, thick, stiffer gel”. For the same sequence, the Appearance ([4]; conc. 1.48%, MgCl2 0.05 M, ionic strength 0.15 M) was “Clear, thick, stiffer gel”, the Appearance ([4]; conc. 1.48%, NaCl 0.05 M, ionic strength 0.5 M) was “Clear, thick, stiffer gel” and the Appearance ([4]; conc. 1.5%, CaCl2 0 M, ionic strength 0 M) was “Clear, thick gel”. The Appearance ([4]; conc. 1.5%, KCl 0 M, ionic strength 0 M) was “Clear, thick gel”, the Appearance ([4]; conc. 1.5%, MgCl2 0 M, ionic strength 0 M) was “Clear, thick gel” and the Appearance ([4]; conc. 1.5%, NaCl 0 M, ionic strength 0 M) was “Clear, thick gel”. For the same sequence, the “salt ionic strength increase that did not change the clear color of the solution (apparent stiffness increased)” value ([4]; depending on different salts, 1.5% peptide solutions) was 0.25˜0.35 M.
